Results on twelve molecules are retold here after patent US20240240209A1, “SYNTHESIS OF ENANTIOPURE CIS-A-IRONE FROM A RENEWABLE CARBON SOURCE” (Agency for Science, Technology and Research, priority 2021, published 2024).

This experiment is described as follows: Cell lysate reaction of pMT enzymes with psi-ionone, irones quantified by HS-SPME-GCMS. Format: biochemical. As to conditions: AUC vs non-mutated (=1). The method in brief: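 pMT1 site-saturation mutants were expressed in E. coli BL21(DE3) and lysed, and lysates were incubated 2 days at 28 °C with 0.2 mM SAM and 10 mg/L psi-ionone (plus caryophyllene) in 50 mM Tris pH 7, 10 mM MgCl2. Cis-α-irone was measured by HS-SPME-GCMS peak area and given as fold change over non-mutated enzyme.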

B1: pMT1_E153Q: pMT1 with E153Q (protein)
chain: MPQEARTPQQQVTADEVGDWYDKFGEVYHLTLGESVHCGLWFPPDAPVPQDMELVTMSSQAQDRYTDYLIETLDPKAGQHLLDIGCGTGRTALKAARQRGIAVTGVAVSKEQIAAANRLAAGHGLTERLTFEVADAMRLPYEDESFDCAWAIQSLCHMDRAKALGEAWRVLKPGGDLLVLESVVTEELTEPETALFETLYAANVPPRLGEFFDIVSGAGFHTLSLKDLSANLAMTMNVFALGVYSRRAEFTERFGAEFVDGLLAGLGSAQETLIRKTRFFMATLRKPAV
As to B1, the “fold change in cis-α-irone produced” value (pMT1_E153 mutants) turned out to be 0.0.

B2: pMT1_E153R: pMT1 with E153R (protein)
chain: MPQEARTPQQQVTADEVGDWYDKFGEVYHLTLGESVHCGLWFPPDAPVPQDMELVTMSSQAQDRYTDYLIETLDPKAGQHLLDIGCGTGRTALKAARQRGIAVTGVAVSKEQIAAANRLAAGHGLTERLTFEVADAMRLPYEDESFDCAWAIRSLCHMDRAKALGEAWRVLKPGGDLLVLESVVTEELTEPETALFETLYAANVPPRLGEFFDIVSGAGFHTLSLKDLSANLAMTMNVFALGVYSRRAEFTERFGAEFVDGLLAGLGSAQETLIRKTRFFMATLRKPAV
Take B2: where the note is “pMT1_E153 mutants”, the “fold change in cis-α-irone produced” value was determined as 0.0.

B3: pMT1_M236S: pMT1 with M236S (protein)
chain: MPQEARTPQQQVTADEVGDWYDKFGEVYHLTLGESVHCGLWFPPDAPVPQDMELVTMSSQAQDRYTDYLIETLDPKAGQHLLDIGCGTGRTALKAARQRGIAVTGVAVSKEQIAAANRLAAGHGLTERLTFEVADAMRLPYEDESFDCAWAIESLCHMDRAKALGEAWRVLKPGGDLLVLESVVTEELTEPETALFETLYAANVPPRLGEFFDIVSGAGFHTLSLKDLSANLAMTSNVFALGVYSRRAEFTERFGAEFVDGLLAGLGSAQETLIRKTRFFMATLRKPAV
B3: under “pMT1_M236 mutants”, the “fold change in cis-α-irone produced” value is given as 0.7.

B4: pMT1_M236R: pMT1 with M236R (protein)
chain: MPQEARTPQQQVTADEVGDWYDKFGEVYHLTLGESVHCGLWFPPDAPVPQDMELVTMSSQAQDRYTDYLIETLDPKAGQHLLDIGCGTGRTALKAARQRGIAVTGVAVSKEQIAAANRLAAGHGLTERLTFEVADAMRLPYEDESFDCAWAIESLCHMDRAKALGEAWRVLKPGGDLLVLESVVTEELTEPETALFETLYAANVPPRLGEFFDIVSGAGFHTLSLKDLSANLAMTRNVFALGVYSRRAEFTERFGAEFVDGLLAGLGSAQETLIRKTRFFMATLRKPAV
For the molecule B4, the “fold change in cis-α-irone produced” value (pMT1_M236 mutants) turned out to be 0.0.

B5: pMT1_E153S: pMT1 with E153S (protein)
chain: MPQEARTPQQQVTADEVGDWYDKFGEVYHLTLGESVHCGLWFPPDAPVPQDMELVTMSSQAQDRYTDYLIETLDPKAGQHLLDIGCGTGRTALKAARQRGIAVTGVAVSKEQIAAANRLAAGHGLTERLTFEVADAMRLPYEDESFDCAWAISSLCHMDRAKALGEAWRVLKPGGDLLVLESVVTEELTEPETALFETLYAANVPPRLGEFFDIVSGAGFHTLSLKDLSANLAMTMNVFALGVYSRRAEFTERFGAEFVDGLLAGLGSAQETLIRKTRFFMATLRKPAV
As for B5, for the setting “pMT1_E153 mutants”, the “fold change in cis-α-irone produced” value amounted to 0.0.

B6: pMT1_M236T: pMT1 with M236T (protein)
chain: MPQEARTPQQQVTADEVGDWYDKFGEVYHLTLGESVHCGLWFPPDAPVPQDMELVTMSSQAQDRYTDYLIETLDPKAGQHLLDIGCGTGRTALKAARQRGIAVTGVAVSKEQIAAANRLAAGHGLTERLTFEVADAMRLPYEDESFDCAWAIESLCHMDRAKALGEAWRVLKPGGDLLVLESVVTEELTEPETALFETLYAANVPPRLGEFFDIVSGAGFHTLSLKDLSANLAMTTNVFALGVYSRRAEFTERFGAEFVDGLLAGLGSAQETLIRKTRFFMATLRKPAV
Turning to B6, where the note is “pMT1_M236 mutants”, the “fold change in cis-α-irone produced” value is on record as 1.7.

B7: pMT1_Y200R (protein)
chain: MPQEARTPQQQVTADEVGDWYDKFGEVYHLTLGESVHCGLWFPPDAPVPQDMELVTMSSQAQDRYTDYLIETLDPKAGQHLLDIGCGTGRTALKAARQRGIAVTGVAVSKEQIAAANRLAAGHGLTERLTFEVADAMRLPYEDESFDCAWAIESLCHMDRAKALGEAWRVLKPGGDLLVLESVVTEELTEPETALFETLRAANVPPRLGEFFDIVSGAGFHTLSLKDLSANLAMTMNVFALGVYSRRAEFTERFGAEFVDGLLAGLGSAQETLIRKTRFFMATLRKPAV
For the molecule B7, the “fold change in cis-α-irone produced” value (pMT1_Y200 mutants) is 0.0.

B8: pMT1_E153T: pMT1 with E153T (protein)
chain: MPQEARTPQQQVTADEVGDWYDKFGEVYHLTLGESVHCGLWFPPDAPVPQDMELVTMSSQAQDRYTDYLIETLDPKAGQHLLDIGCGTGRTALKAARQRGIAVTGVAVSKEQIAAANRLAAGHGLTERLTFEVADAMRLPYEDESFDCAWAITSLCHMDRAKALGEAWRVLKPGGDLLVLESVVTEELTEPETALFETLYAANVPPRLGEFFDIVSGAGFHTLSLKDLSANLAMTMNVFALGVYSRRAEFTERFGAEFVDGLLAGLGSAQETLIRKTRFFMATLRKPAV
In the case of B8, where the note is “pMT1_E153 mutants”, the “fold change in cis-α-irone produced” value was determined as 0.0.

B9: pMT1_Y200T: pMT1 with Y200T (protein)
chain: MPQEARTPQQQVTADEVGDWYDKFGEVYHLTLGESVHCGLWFPPDAPVPQDMELVTMSSQAQDRYTDYLIETLDPKAGQHLLDIGCGTGRTALKAARQRGIAVTGVAVSKEQIAAANRLAAGHGLTERLTFEVADAMRLPYEDESFDCAWAIESLCHMDRAKALGEAWRVLKPGGDLLVLESVVTEELTEPETALFETLTAANVPPRLGEFFDIVSGAGFHTLSLKDLSANLAMTMNVFALGVYSRRAEFTERFGAEFVDGLLAGLGSAQETLIRKTRFFMATLRKPAV
As to B9, the “fold change in cis-α-irone produced” value (pMT1_Y200 mutants) amounted to 0.0.

B10: pMT1_R160S: pMT1 with R160S (protein)
chain: MPQEARTPQQQVTADEVGDWYDKFGEVYHLTLGESVHCGLWFPPDAPVPQDMELVTMSSQAQDRYTDYLIETLDPKAGQHLLDIGCGTGRTALKAARQRGIAVTGVAVSKEQIAAANRLAAGHGLTERLTFEVADAMRLPYEDESFDCAWAIESLCHMDSAKALGEAWRVLKPGGDLLVLESVVTEELTEPETALFETLYAANVPPRLGEFFDIVSGAGFHTLSLKDLSANLAMTMNVFALGVYSRRAEFTERFGAEFVDGLLAGLGSAQETLIRKTRFFMATLRKPAV
Regarding B10, the “fold change in cis-α-irone produced” value (pMT1_R160 mutants) is given as 0.0.

B11: pMT1_Y200S: pMT1 with Y200S (protein)
chain: MPQEARTPQQQVTADEVGDWYDKFGEVYHLTLGESVHCGLWFPPDAPVPQDMELVTMSSQAQDRYTDYLIETLDPKAGQHLLDIGCGTGRTALKAARQRGIAVTGVAVSKEQIAAANRLAAGHGLTERLTFEVADAMRLPYEDESFDCAWAIESLCHMDRAKALGEAWRVLKPGGDLLVLESVVTEELTEPETALFETLSAANVPPRLGEFFDIVSGAGFHTLSLKDLSANLAMTMNVFALGVYSRRAEFTERFGAEFVDGLLAGLGSAQETLIRKTRFFMATLRKPAV
For B11, the “fold change in cis-α-irone produced” value (pMT1_Y200 mutants) worked out at 0.2.

B12: pMT1_R160T: pMT1 with R160T (protein)
chain: MPQEARTPQQQVTADEVGDWYDKFGEVYHLTLGESVHCGLWFPPDAPVPQDMELVTMSSQAQDRYTDYLIETLDPKAGQHLLDIGCGTGRTALKAARQRGIAVTGVAVSKEQIAAANRLAAGHGLTERLTFEVADAMRLPYEDESFDCAWAIESLCHMDTAKALGEAWRVLKPGGDLLVLESVVTEELTEPETALFETLYAANVPPRLGEFFDIVSGAGFHTLSLKDLSANLAMTMNVFALGVYSRRAEFTERFGAEFVDGLLAGLGSAQETLIRKTRFFMATLRKPAV
As for B12, the “fold change in cis-α-irone produced” value (pMT1_R160 mutants) is given as 1.2.
